Data on one protein can be found in US20040086495.

The data set deals with T1, phospho-BAD (recombinant BAD as GST-fusion protein, phosphorylated in vitro with PKA and [gamma-32P]ATP), Q61337.
T1 chain: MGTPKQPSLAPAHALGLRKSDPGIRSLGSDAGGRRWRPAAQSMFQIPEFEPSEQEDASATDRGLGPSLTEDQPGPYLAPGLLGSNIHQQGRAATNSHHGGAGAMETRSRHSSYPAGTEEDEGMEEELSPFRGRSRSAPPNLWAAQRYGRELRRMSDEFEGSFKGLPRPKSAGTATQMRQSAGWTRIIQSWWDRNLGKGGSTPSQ

B1: PP2Cβ from bovine brain (protein phosphatase type 2C beta), recombinant, expressed in E. coli (protein)
chain: MGAFLDKPKTEKHNAHGAGNGLRYGLSSMQGWRVEMEDAHTAVVGIPHGLEDWSFFAVYDGHAGSRVANYCSTHLLEHITNNEDFRAAGKSGSALEPSVENVKNGIRTGFLKIDEYMRNFSDLRNGMDRSGSTAVGVMISPKHIYFINCGDSRAVLYRSGQVCFSTQDHKPCNPREKERIQNAGGSVMIQRVNGSLAVSRALGDYDYKCVDGKGPTEQLVSPEPEVYEILRAEEDEFIILACDGIWDVMSNEELCEFVKSRLEVSDDLENVCNWVVDTCLHKGSRDNMSIVLVCFSNAPKVSDEAMRKDSELDKYLESRVEEIMEKSGEEGMPDLAHVMRILSAENIPNLPPGGGLAGKRHVIEAVYSRLNPHRESDGGAGDLEDPW
Turning to B1, the “dephosphorylation of [32P]BAD by PP2C in vitro (SDS-PAGE, autoradiography)” value was “The dephosphorylation of phospho-BAD by PP2C is dependent as well on time and concentration”; the “dephosphorylation of phospho-BAD sites by PP2C” value was “Here it could be shown, that PP2C preferably dephosphorylates P-ser^155 compared to P-ser^112 and P-ser^136”.
